In experiment [1] the test system is split Nanoluciferase (LgBiT/SmBiT) reconstitution in HEK293 cells. The experiment in a line: Split NanoLuc reconstitution assay (NanoBiT). The conditions noted are these: 100 nM simeprevir over no simeprevir; LgBiT fused to the C-terminus of the PRSIM binding module. The experiment is classed as cell-based, human. As to the method:
The ability of the PRSIM binding molecules to promote dimerization of two proteins to which they are fused was assessed with the NanoBiT system (Promega) that measures the reconstitution of a split Nanoluciferase (NanoLuc) and the resultant luminescence upon supply of a live cell imaging Nano-Glo NanoLuc substrate (FIG. 8). In the NanoBiT system, one interaction partner is fused via a flexible linker to an 18 kDa fragment of NanoLuc termed LgBiT (for “large bit”) (SEQ ID NO: 16) and the other is fused via an equivalent linker to a 1.3 kDa peptide SmBiT (“small bit”) (SEQ ID NO: 17). LgBit and SmBiT have a low affinity (190 μM) for each other in the absence of interacting partners and will not reconstitute to form an active luciferase enzyme. Once fused to the interacting proteins of a CID and supplied with inducer, they will reconstitute, and luminescence can be measured. The NanoBiT system supplies two sets of control proteins fused to LgBiT and SmBiT: a set of constitutively interacting proteins PRKAR2A:PRKACA; and the FRB:FKBP12 pair whose dimerization can be induced with rapamycin.
To establish the optimal orientation of the HCV NS3/4A PR (S139A) and PRSIM components, constructs whereby HCV NS3/4A PR (S139A) was fused at either the N- or C-terminus to SmBiT (SEQ ID NOs: 18 and 19, respectively) and a parallel set of constructs for each PRSIM binding module fused to either the N- or C-terminus of LgBiT (SEQ ID NOS: 20-30 and 31-41, respectively). The NanoBiT kit (Promega) supplies a set of vectors enabling these constructs to be generated. DNA strings encoding HCV NS3/4A PR (S139A) and the PRSIM molecules were purchased from GeneArt and amplified via PCR with primers with extensions containing restriction sites compatible with the NanoBiT vectors and were cloned via Gibson assembly. All constructs were verified via Sanger sequencing of the entire coding sequence.
All NanoBiT screens were performed in adherent HEK293 cells cultured in 96-well plates. Cells enzymatically dissociated from a tissue culture flask were counted and plated at 2×10^4 cells/well in a white, opaque-bottomed 96-well plate (Costar 3917). The plates were incubated overnight at 37° C. with 5% CO2 to allow the cells to adhere. On day 2, plasmids were co-transfected with Lipofectamine LTX (ThermoFisher) at a final concentration of 100 ng/well (50 ng/plasmid, one encoding a SmBiT fusion, the other a LgBiT fusion). On day 3, wells were treated with 100 nM of the appropriate small molecule inducer (rapamycin (FRB:FKBP12) or simeprevir (HCV NS3/4A PR:PRSIM)) or vehicle control, and luminescence was quantified with an Envision plate reader immediately following addition of Nano-Glo Live Cell Substrate (Promega).

For experiment [2], the system named is luciferase gene expression in HEK293 cells. The experiment can be described thus: AAV transduction, inducible luciferase transgene in trans. The experiment is classed as cell-based, human. The conditions noted are these: two separate AAV8 preparations, simeprevir. From the text:
AAV expression vectors were generated by subcloning specific promoter and transgene elements into an intermediate vector derived from pAAV-CMV (Takara) in which the CMV promoter downstream of the 5′ITR was removed and a WPRE element and SV40 polyA sequence were inserted upstream of the 3′ ITR.
To generate AAV encoding an inducible luciferase transgene, the ZHFD1-luciferase cassette was amplified by PCR from pZFHD1-Luciferase provided in the iDimerize regulated transcription system (Takara) and subcloned into the intermediate AAV vector. […]
Recombinant AAV (rAAV) was produced by triple-transfection of 40 T-175 cm^2 flasks containing HEK293 T-17 cells at 80% confluency using a standard helper-free approach. […] Fractions were taken from the ultraclear centrifuge tubes by piercing the tube with a 19 gauge syringe in the 60% layer below the clear band representing the virus and the purity of each fraction was assessed by SDS-PAGE of each fraction and subsequent Sypro Ruby analysis. […]
All rAAV transduction assays were performed in adherent HEK293 cells cultured in 96-well plates. Cells enzymatically dissociated from a tissue culture flask were counted and plated at 2.5×10^4 cells/well in a 96-well plate. […] For luminescence assays, SteadyGlo luciferase substrate (Promega) was added and luminescence was quantified with an Envision plate reader. […]

The values that follow come from patent US20220380801A1, “TRIPARTITE SYSTEMS FOR PROTEIN DIMERIZATION AND METHODS OF USE” (priority 2019, published 2022).

B1: PRSIM_33: Tn3 PRSIM binding molecule, SEQ ID NO: 7 (protein)
chain: RLDAPSQIEVKDVTDTTALITWYPPGRWYDDIWYFELTYGIKDVPGDRTTIKLARGDDVYSIGNLKPDTEYEVSLISWGPDRGDRAGSNPAKITFKTGL
modifications: PRSIM_33
As to B1, in experiment [1], the fold-change in luminescence is on record as 9 fold.

B2: PRSIM_23: Tn3 protein specific for HCV NS3/4A PR (S139A):simeprevir complex, SEQ ID NO: 5 (protein)
chain: RLDAPSQIEVKDVTDTTALITWVDPRYDDIWWFELTYGIKDVPGDRTTIKLYLNDPYYSIGNLKPDTEYEVSLISYTGDSYSRSGSNPAKITFKTGL
modifications: PRSIM_23
The molecule B2 gave a fold-change in luminescence in experiment [1] of 31 fold. In addition, the “induction of luciferase activity” value in experiment [2] is reported as 228 fold.

B3: PRSIM_57: scFv specific for HCV NS3/4A PR (S139A):simeprevir complex, SEQ ID NO: 12 (protein)
scFv: QVQLVQSGAEVKKPGSSVKVSCKASGGTFSSYAISWVRQAPGQGLEWMGGIIPIFGTANYAQKFQGRVTITADESTSTAYMELSSLRSEDTAVYYCARHTNYITVFDYWGQGTLVTVSSGGGGSGGGGSGGGGSAQSVLTQPPSASGTPGQRVTISCSGSSSNIGSNTVNWYQQLPGTAPKLLIYSNNQRPSGVPDRFSGSKSGTSASLAISGLQSEDEADYYCAAWDHHWEQVVFGGGTKLTVL
modifications: PRSIM_57
Turning to B3, the fold-change in luminescence in experiment [1] is reported as 14 fold.
